We go through one molecule from patent US20260272830A1, “Ocular Hydrogel Compositions” (The University of Birmingham, priority 2018, published 2026).

For data set [1], the target named is T1, collagen type I (rat tail) (Rattus norvegicus, UniProt P02454+P02466).
T1 construct: collagen type I (rat tail; Corning, UK); purchased Corning, UK; host or cells: rat tail (tissue-derived)
The data set can be described thus: Collagen fibrillogenesis turbidity assay. It is filed as biochemical. On the procedure: Collagen fibrillogenesis: For the dose response curves, 75 μl of PBS was added to each well of a 96 well plate kept on ice. Varying hrDecorin doses were prepared by adding 400 μg/ml of hrDecorin to the first well and subsequently serial diluting (2-fold dilution) across the plate. Following dilution, a further 150 μl of PBS buffer was added to each well. Then, 75 μl of collagen type I (rat tail; Corning, UK) (800 μg/ml) was added to each well and incubated for 2 hours at 37° C. Subsequent absorbance readings were taken using a 405 nm plate reader. Each assay consisted of duplicate blank controls, and triplicate standard dilutions followed by triplicate sample dilutions. Kinetics of fibril formation were determined using a similar setup as the dose response, without serial dilution; incubating the samples within the plate reader, and taking data points every 2 minutes.

A short description of data set [2]: hrDecorin release from the fluid gel (ELISA). The class given is physicochemical. The settings on record: cumulative release over 4 hours (240 mins), DMEM, 37° C. On the procedure:
Levels of hrDecorin release from the gel were determined cumulatively, by placing 1 ml of the fluid gel containing hrDecorin in a 6 well plate. Then 2 ml of DMEM was placed over the sample and the plates were incubated at 37° C. At each time point, the media was removed for measurement of hrDecorin, and replaced with fresh media. Decorin release was quantified using an ELISA specific for human Decorin (R&D systems, Minneapolis, USA) in accordance with the manufacturer's protocol.

Where [3] appears, read: turbidity at 405 nm, 2 hours at 37° C.

T1 sequence (P02454 152-1207 limits assumed): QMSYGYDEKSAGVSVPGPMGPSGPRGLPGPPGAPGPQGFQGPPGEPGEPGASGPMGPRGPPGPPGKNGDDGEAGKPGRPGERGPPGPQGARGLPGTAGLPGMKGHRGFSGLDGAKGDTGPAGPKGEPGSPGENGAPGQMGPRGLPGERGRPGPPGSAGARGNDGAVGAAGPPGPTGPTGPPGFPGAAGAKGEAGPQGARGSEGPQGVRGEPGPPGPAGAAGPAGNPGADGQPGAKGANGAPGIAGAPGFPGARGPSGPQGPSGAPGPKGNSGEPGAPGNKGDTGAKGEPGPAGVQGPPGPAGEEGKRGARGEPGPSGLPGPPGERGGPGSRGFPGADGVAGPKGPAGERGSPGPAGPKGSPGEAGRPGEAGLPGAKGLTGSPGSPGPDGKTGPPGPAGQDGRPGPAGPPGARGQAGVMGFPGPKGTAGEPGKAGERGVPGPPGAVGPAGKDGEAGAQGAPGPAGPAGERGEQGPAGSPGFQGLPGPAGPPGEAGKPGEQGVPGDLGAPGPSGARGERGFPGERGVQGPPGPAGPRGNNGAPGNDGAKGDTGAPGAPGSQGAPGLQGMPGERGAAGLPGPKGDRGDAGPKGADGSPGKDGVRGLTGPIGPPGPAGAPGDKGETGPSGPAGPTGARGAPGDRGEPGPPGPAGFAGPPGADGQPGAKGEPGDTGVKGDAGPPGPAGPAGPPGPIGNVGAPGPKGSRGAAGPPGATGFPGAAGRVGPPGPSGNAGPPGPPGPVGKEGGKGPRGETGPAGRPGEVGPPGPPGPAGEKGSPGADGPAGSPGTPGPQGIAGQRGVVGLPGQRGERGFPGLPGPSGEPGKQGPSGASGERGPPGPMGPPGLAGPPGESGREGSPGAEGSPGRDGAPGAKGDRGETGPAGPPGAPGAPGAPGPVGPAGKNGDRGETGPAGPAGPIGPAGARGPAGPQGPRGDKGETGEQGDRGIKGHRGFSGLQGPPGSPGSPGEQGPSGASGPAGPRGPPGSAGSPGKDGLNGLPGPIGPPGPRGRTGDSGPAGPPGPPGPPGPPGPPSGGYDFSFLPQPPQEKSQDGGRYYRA
T1 sequence (P02466 86-1125 limits assumed): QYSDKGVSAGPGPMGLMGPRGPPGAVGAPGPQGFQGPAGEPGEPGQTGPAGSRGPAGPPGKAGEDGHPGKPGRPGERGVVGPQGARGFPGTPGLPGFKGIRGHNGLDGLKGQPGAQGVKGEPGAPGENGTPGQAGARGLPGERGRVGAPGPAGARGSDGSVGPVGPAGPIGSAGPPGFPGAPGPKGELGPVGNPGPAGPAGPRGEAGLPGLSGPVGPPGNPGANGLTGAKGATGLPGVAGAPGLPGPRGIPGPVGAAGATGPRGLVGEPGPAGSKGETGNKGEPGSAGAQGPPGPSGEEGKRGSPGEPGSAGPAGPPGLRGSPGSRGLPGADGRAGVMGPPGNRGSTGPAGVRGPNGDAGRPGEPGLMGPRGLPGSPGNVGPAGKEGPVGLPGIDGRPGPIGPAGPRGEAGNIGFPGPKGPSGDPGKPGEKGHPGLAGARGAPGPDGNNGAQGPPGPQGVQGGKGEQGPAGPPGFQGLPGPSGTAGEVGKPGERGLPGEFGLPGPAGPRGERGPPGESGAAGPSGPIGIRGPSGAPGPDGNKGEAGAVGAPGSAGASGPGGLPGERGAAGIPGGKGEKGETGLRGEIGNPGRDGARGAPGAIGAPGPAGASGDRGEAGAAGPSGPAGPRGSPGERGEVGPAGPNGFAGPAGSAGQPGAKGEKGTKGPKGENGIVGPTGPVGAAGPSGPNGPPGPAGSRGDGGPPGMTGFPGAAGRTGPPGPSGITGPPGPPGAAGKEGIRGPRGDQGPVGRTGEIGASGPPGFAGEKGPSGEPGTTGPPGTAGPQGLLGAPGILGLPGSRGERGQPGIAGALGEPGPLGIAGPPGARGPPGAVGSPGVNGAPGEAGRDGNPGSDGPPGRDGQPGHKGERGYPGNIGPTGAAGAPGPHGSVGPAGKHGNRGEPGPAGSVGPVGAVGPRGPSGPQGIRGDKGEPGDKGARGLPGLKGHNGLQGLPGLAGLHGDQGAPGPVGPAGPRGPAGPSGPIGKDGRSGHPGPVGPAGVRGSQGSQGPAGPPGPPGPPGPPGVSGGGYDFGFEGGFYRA

B1: hrDecorin: human recombinant decorin (Galacorin™; Catalent), anti-fibrotic small leucine-rich proteoglycan (protein, UniProt P07585 31-359, looked up)
Decorin: DEASGIGPEVPDDRDFEPSLGPVCPFRCQCHLRVVQCSDLGLDKVPKDLPPDTTLLDLQNNKITEIKDGDFKNLKNLHALILVNNKISKVSPGAFTPLVKLERLYLSKNQLKELPEKMPKTLQELRAHENEITKVRKVTFNGLNQMIVIELGTNPLKSSGIENGAFQGMKKLSYIRIADTNITSIPQGLPPSLTELHLDGNKISRVDAASLKGLNNLAKLGLSFNSISAVDNGSLANTPHLRELHLDNNKLTRVPGGLAEHKYIQVVYLHNNNISVVGSSDFCPPGHNTKKASYSGVSLFSNPVQYWEIQPSTFRCVYVRSAIQLGNYK
In the case of B1, in data set [1] (setting [3]), the “concentration at which minimum turbidity is achieved, above which no further reduction occurs” value is over 10000 ng/mL and the “critical concentration above which hrDecorin inhibits fibrillogenesis” value was 0.5 μg/ml. Moreover, in data set [1] (turbidity read every 2 minutes), the “kinetics of fibril formation” value is “slowing the onset of fibrillogenesis”. The “rate of release of hrDecorin from the eye drop system” value in data set [2] is recorded as “almost linear over time”.
